Consider two molecules from patent US20240343803A1 (SHANDONG SIMCERE BIOPHARMACEUTICAL, published 2024).

Assay [1] concerns the target T1, human TIGIT ECD-his (fusion protein of extracellular domain of human TIGIT and His-tag) (human).
T1 construct: entry includes the signal peptide, limits not readable here
T1 chain: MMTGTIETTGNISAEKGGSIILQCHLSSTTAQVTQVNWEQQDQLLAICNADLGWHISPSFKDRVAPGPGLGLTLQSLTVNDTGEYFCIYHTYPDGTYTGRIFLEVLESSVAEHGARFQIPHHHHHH
In words: BIAcore kinetics. For orientation: In SPR one partner is held on a chip, and binding of the other changes the refractive index at the surface.

The target in assay [2] is T2, full-length human TIGIT on CHO-K1 cells (CHO-K1 human TIGIT) (human, UniProt Q495A1 22-244).
T2 construct: NCBI XP_024309156.1; entry includes the signal peptide; also called high expression strain 1D2; medium expression strain 2D10
T2 sequence: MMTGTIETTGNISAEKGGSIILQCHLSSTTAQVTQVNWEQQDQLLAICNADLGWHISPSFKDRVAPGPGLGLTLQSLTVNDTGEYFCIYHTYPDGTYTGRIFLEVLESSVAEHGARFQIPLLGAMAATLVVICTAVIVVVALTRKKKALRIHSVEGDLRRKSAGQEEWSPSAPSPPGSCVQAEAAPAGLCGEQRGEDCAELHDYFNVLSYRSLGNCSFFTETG
In words: FACS, CHO-K1 human TIGIT medium expression strain. Here is the method:
The collected cells were washed once with PBS (Hyclone, Cat NO. SH30256), resuspended to 2×10⁵/50 μL with 1% BSA-PBS. The antibodies were diluted to 80 nM with 1% BSA-PBS (diluted by 3-fold serial dilution for 12 concentration points). The 50 μL cells were then mixed with 50 μL diluted antibodies, and then incubated at 4° C. for 60 minutes. […] After washing twice with PBS, the cell samples were resuspended with 1% BSA-PBS, 100 μL/well and then analyzed by flow cytometry (BD, Canto II).
For orientation: In flow cytometry, cells or beads pass a laser one at a time.

Assay [3] addresses T3, human PVRIG-mFc protein (Acro, PVG-H5253) (human, UniProt Q6DKI7 41-171, limits assumed).
T3 construct: bought reagent; also called PVRIG-ECD-mFc
T3 sequence (looked up): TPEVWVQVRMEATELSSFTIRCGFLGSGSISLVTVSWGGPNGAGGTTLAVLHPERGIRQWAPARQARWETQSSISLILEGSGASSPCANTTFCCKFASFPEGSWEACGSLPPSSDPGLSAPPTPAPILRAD
In words: competition FACS; blocked: human PVRIG-mFc binding to CHO-K1-CD112 cells. The essentials: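 In this competition flow cytometry assay, the IC50 was taken from the curve of mean fluorescence intensity against antibody dilution. Antibodies and human PVRIG-mFc were premixed at 4° C for 30 min, then incubated with Zombie violet-stained CHO-K1-CD112 cells for 30 min at 4° C. PE goat anti-mouse IgG Fc (1:250) detected bound PVRIG-mFc on a BD Canto II.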

Assay [4] has as its target T4, cynomolgus monkey PVRIG (Novoprotein, Cat NO. C09B) (cynomolgus monkey, UniProt A0A2K5WVV8 41-171).
T4 construct: bought reagent; also called cynomolgus monkey PVRIG recombinant protein
T4 sequence: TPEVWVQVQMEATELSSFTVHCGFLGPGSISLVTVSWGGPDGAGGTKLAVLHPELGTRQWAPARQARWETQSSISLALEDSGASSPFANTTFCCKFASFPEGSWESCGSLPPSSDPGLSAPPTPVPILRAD
In words: ELISA, coated cynomolgus monkey PVRIG. For orientation: An ELISA detects its analyte on a solid surface through an enzyme-linked reagent.

B1: RG6058-hIgG1 (antibody, V domains shown)
VH: EVQLQQSGPGLVKPSQTLSLTCAISGDSVSSNSAAWNWIRQSPSRGLEWLGKTYYRFKWYSDYAVSVKGRITINPDTSKNQFSLQLNSVTPEDTAVFYCTRESTTYDLLAGPFDYWGQGTLVTVSS
VL: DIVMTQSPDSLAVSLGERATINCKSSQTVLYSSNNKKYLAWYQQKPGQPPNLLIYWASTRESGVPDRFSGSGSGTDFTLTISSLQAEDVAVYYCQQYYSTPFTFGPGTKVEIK
notes: human IgG1 format by its name; also called Roche RG6058; control antibody RG6058
As a reminder, the Kd is the equilibrium constant for the complex coming apart. By koff is commonly meant a measure of how fast the partners let go of each other. The kon is the rate constant with which the complex forms. Usually EC50 (read off the curve) stands for the concentration needed to bring the measured effect to its halfway point. With B1, in assay [1], the Kd stood at 163 pM, the koff turned out to be 0.000147 s⁻¹ and the kon turned out to be 903000 M⁻¹ s⁻¹. Also, the “EC50 (read off the curve)” value in assay [2] was approximately 400 pM.

B2: SRF813-hIgG1 (antibody, V domains shown)
VH: QVQLVQSGAEVKKPGSSVKVSCKASGGTFSSAAISWVRQAPGQGLEWMGNIIPIVGIANYAQKFQGRVTITADESTSTAYMELSSLRSEDTAVYYCARDTGRGYTRHFWFDPWGQGTLVTVSS
VL: DIQMTQSPSSLSASVGDRVTITCRASQSISSYLNWYQQKPGKAPKLLIYAASSLQSGVPSRFSGSGSGTDFTLTISSLQPEDFATYYCQQSDILYTFGGGTKVEIK
notes: human IgG1 format by its name
In the case of B2, the “IC50 (read off the curve)” value in assay [3] is approximately 1000 pM. Further, in assay [4], the “EC50 (read off the curve)” value was approximately 60 pM.
